One may read the stoichiometry N as the number of molecules, sites or subunits per partner or assembly.

We go through one molecule from paper PMC6113224, “Structural basis of cell wall peptidoglycan amidation by the GatD/MurT complex of Staphylococcus aureus” (Scientific Reports, 2018).

This assay has as its target T1, GatD (glutamine amidotransferase-like protein GatD of Staphylococcus aureus) (Staphylococcus aureus, UniProt A0A0H2WZ38 1-243).
T1 construct: GatD, glutamine amidotransferase-like subunit of the GatD/MurT Lipid II amidation complex, Staphylococcus aureus; full length; source: E. coli BL21, co-expressed with MurT from pET21b (gatD/murT operon), purified (Ni-NTA, two rounds of SEC)
T1 sequence (looked up): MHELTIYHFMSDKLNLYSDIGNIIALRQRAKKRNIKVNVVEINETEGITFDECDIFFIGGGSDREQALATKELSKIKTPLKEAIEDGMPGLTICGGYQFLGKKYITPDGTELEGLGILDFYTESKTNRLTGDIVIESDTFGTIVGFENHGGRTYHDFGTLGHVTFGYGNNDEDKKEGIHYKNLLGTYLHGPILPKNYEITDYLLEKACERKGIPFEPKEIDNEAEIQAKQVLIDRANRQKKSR
Put plainly: SAXS; two-fold dilution series 0.5 to 8 mg/mL of GatD/MurT in SEC II buffer, extrapolated to zero concentration; beamline P12, DESY. The note with it: both partners purified.

B1: MurT (Mur ligase homolog MurT of Staphylococcus aureus) (enzyme, UniProt A0A0H2WZQ7 1-437, looked up)
chain: MRQWTAIHLAKLARKASRAVGKRGTDLPGQIARKVDTDILRKLAEQVDDIVFISGTNGKTTTSNLIGHTLKANNIQIIHNNEGANMAAGITSAFIMQSTPKTKIAVIEIDEGSIPRVLKEVTPSMMVFTNFFRDQMDRFGEIDIMVNNIAETISNKGIKLLLNADDPFVSRLKIASDTIVYYGMKAHAHEFEQSTMNESRYCPNCGRLLQYDYIHYNQIGHYHCQCGFKREQAKYEISSFDVAPFLYLNINDEKYDMKIAGDFNAYNALAAYTVLRELGLNEQTIKNGFETYTSDNGRMQYFKKERKEAMINLAKNPAGMNASLSVGEQLEGEKVYVISLNDNAADGRDTSWIYDADFEKLSKQQIEAIIVTGTRAEELQLRLKLAEVEVPIIVERDIYKATAKTMDYKGFTVAIPNYTSLAPMLEQLNRSFEGGQS
notes: MurT, Mur ligase homolog subunit of the GatD/MurT Lipid II amidation complex, Staphylococcus aureus; full length, untagged; MurT residues 1-35, 195-196 and 434-437 are not seen in the crystal structure
For the molecule B1, the “stoichiometry N” value was 1.
